Laboratory results as given in patent US8304206.
Values joined by “and” are separate entries in the source; they are usually repeats but may differ in a detail not shown here. Equal values may be shown once.

Biological target: T1, SIRT1 Acetylated Peptide Substrate Ac-EE-K(biotin)-GQSTSSHSK(Ac)NleSTEG-K(5TMR)-EE-NH2 (SEQ ID NO: 34)
T1 chain: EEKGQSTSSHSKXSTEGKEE

B1: SIRT1 protein (human SIRT1 enzyme), expressed in E. coli BL21(DE3) as an N-terminal His-tag fusion protein (protein)
chain: MADEAALALQPGGSPSAAGADREAASSPAGEPLRKRPRRDGPGLERSPGEPGGAAPEREVPAAARGCPGAAAAALWREAEAEAAAAGGEQEAQATAAAGEGDNGPGLQGPSREPPLADNLYDEDDDDEGEEEEEAAAAAIGYRDNLLFGDEIITNGFHSCESDEEDRASHASSSDWTPRPRIGPYTFVQQHLMIGTDPRTILKDLLPETIPPPELDDMTLWQIVINILSEPPKRKKRKDINTIEDAVKLLQECKKIIVLTGAGVSVSCGIPDFRSRDGIYARLAVDFPDLPDPQAMFDIEYFRKDPRPFFKFAKEIYPGQFQPSLCHKFIALSDKEGKLLRNYTQNIDTLEQVAGIQRIIQCHGSFATASCLICKYKVDCEAVRGDIFNQVVPRCPRCPADEPLAIMKPEIVFFGENLPEQFHRAMKYDKDEVDLLIVIGSSLKVRPVALIPSSIPHEVPQILINREPLPHLHFDVELLGDCDVIINELCHRLGGEYAKLCCNPVKLSEITEKPPRTQKELAYLSELPPTPLHVSEDSSSPERTSPPDSSVIVTLLDQAAKSNDDLDVSESKGCMEEKPQEVQTSRNVESIAEQMENPDLKNVGSSTGEKNERTSVAGTVRKCWPNRVAKEQISRRLDGNQYLFLPPNRYIFHGAEVYSDSEDDVLSSSSCGSNSDSGTCQSPSLEEPMEDESEIEEFYNGLEDEPDVPERAGGAGFGTDGDDQEAINEAISVKQEVTDMNYPSNKS
Km (mass spectrometry deacetylase assay, replicate plate): 11.2 µM and 11.9 µM
Peptide Km (mean of 2 replicate plates, mass spectrometry assay): 11.6 µM
deacetylation of the peptide (conversion to deacetylated product, mass spectrometry): SIRT1 deacetylation activity is dependent on both enzyme concentration and incubation time. Concentrations of enzyme between 5-20 nM result in product formation well above background.
decrease of Km for peptide substrate at 1.2 µM resveratrol (against DMSO vehicle): 2%
decrease of Km for peptide substrate at 3.7 µM resveratrol (against DMSO vehicle): 14%
decrease of Km for peptide substrate at 11 µM resveratrol (against DMSO vehicle): 14%
decrease of Km for peptide substrate at 33 µM resveratrol (against DMSO vehicle): 32%
decrease of Km for peptide substrate at 100 µM resveratrol (against DMSO vehicle): 46%
